Here are results for eight molecules from patent US20200079854A1 (Johns Hopkins, published 2020).

Changes are numbered by the printed parent chain.

The target of assay [1] is T1, KRAS wt(7-16) peptide … with HLA-A3 and b2M on cells (human).
T1 construct: peptide-pulsed T2A3 cells in flow cytometry
The assay can be described thus: flow cytometry, phage-displayed scFv on peptide-pulsed T2A3 cells (FIG. 8).
Experimental: (§1) Cells were stained with 10 μL of precipitated phage per 100 μL of cells, washed and stained with rabbit anti-M13 antibody, then washed and stained with anti-Rabbit-PE antibody. Cells were stained with a live/dead Near-IR dye, washed, and analyzed by an LSRII flow cytometer.
(§2) The pulsed cells were pelleted, washed once in cold stain buffer (PBS containing 0.5% BSA, 2 mM EDTA, and 0.1% sodium azide), and resuspended in 100 μL of stain buffer. Phage staining was performed on ice with 10 uL (approximately 1×10⁹) phage for 1 hour in 100 uL total volume, followed by one 4 mL wash in cold stain buffer. Cells were then stained with 1 uL of rabbit anti-M13 antibody (Pierce, Rockford, Ill.) in 100 uL total volume on ice for 1 hour and washed once with 4 mL of cold stain buffer. Cells were stained with anti-rabbit-PE (Biolegend) on ice for 1 hour in 100 uL total volume, followed by incubation with LIVE/DEAD Fixable Near-IR Dead Cell Stain (Thermo Fisher) for 10 min at room temperature per manufacturer's instructions. Cells were washed once in 4 mL of stain buffer followed by resuspension in 300 uL of stain buffer before analysis. Stained cells were analyzed using an LSRII flow cytometer (Becton Dickinson, Mansfield, Mass.).

For assay [2], the target named is T1, KRAS wt(7-16) peptide … with HLA-A3 and …. In words: flow cytometry, phage-displayed scFv on peptide-pulsed T2A3 cells (FIG. 6).
Experimental: as §1, §2
Assay [3] has as its target KRAS wt(6-14) peptide … with HLA-A2 and b2M on peptide-pulsed T2 cells (human). The assay can be described thus: flow cytometry, phage-displayed scFv on peptide-pulsed T2 cells (FIG. 5).
Experimental: as §1, §2

B1: KRAS_G12D_A3_D26 (scFv)
scFv: DIQMTQSPSSLSASVGDRVTITCRASQDVNTAVAWYQQKPGKAPKLLIYSASFLYSGVPSRFSGSRSGTDFTLTISSLQPEDFATYYCQQYAYSPLTFGQGTKVEIKRTGGGSGGGGSGGGASEVQLVESGGGLVQPGGSLRLSCAASGFNVSSYGMHWVRQAPGKGLEWVAFIAPRRDYTSYADSVKGRFTISADTSKNTAYLQMNSLRAEDTAVYYCSRKSSYYFDYWGQGTLVTVSS
For the molecule B1, the binding result in assay [1] was “no binding”.

B2: KRAS_G12CDV_A3_c118 (scFv)
scFv: DIQMTQSPSSLSASVGDRVTITCRASQDVNTAVAWYQQKPGKAPKLLIYSASFLYSGVPSRFSGSRSGTDFTLTISSLQPEDFATYYCQQYYYPPITFGQGTKVEIKRTGGGSGGGGSGGGASEVQLVESGGGLVQPGGSLRLSCAASGFNVSHTGMHWVRQAPGKGLEWVAVVGPGKGYTYYADSVKGRFTISADTSKNTAYLQMNSLRAEDTAVYYCSRKTYYAFDYWGQGTLVTVSS
Turning to B2, the binding result in assay [2] is “no binding”.

B3: KRAS_G12V_A2_A1 (scFv)
scFv: DIQMTQSPSSLSASVGDRVTITCRASQDVNTAVAWYQQKPGKAPKLLIYSASFLYSGVPSRFSGSRSGTDFTLTISSLQPEDFATYYCQQWYSSPVTFGQGTKVEIKRTGGGSGGGGSGGGASEVQLVESGGGLVQPGGSLRLSCAASGFNINWANMHWVRQAPGKGLEWVAQISPPYDYTNYADSVKGRFTISADTSKNTAYLQMNSLRAEDTAVYYCSRSYSYYFDYWGQGTLVTVSS
Consider B3, for which the binding result in assay [3] was “no binding”.

B4: KRAS_G12V_A2_C1 (scFv)
scFv: DIQMTQSPSSLSASVGDRVTITCRASQDVNTAVAWYQQKPGKAPKLLIYSASFLYSGVPSRFSGSRSGTDFTLTISSLQPEDFATYYCQQYYSRPVTFGQGTKVEIKRTGGGSGGGGSGGGASEVQLVESGGGLVQPGGSLRLSCAASGFNIYLHDMHWVRQAPGKGLEWVAQIIPAIDYTNYADSVKGRFTISADTSKNTAYLQMNSLRAEDTAVYYCSRRDGYYFDYWGQGTLVTVSS
For B4, the binding result in assay [3] is listed as “no binding”.

B5: KRAS_G12V_A2_A5 (scFv)
scFv: B3 scFv with N153Y, A155S, N156H, Q173I, P176S, P177F, Y178E, D179G, N182Y, F227M
With B5, the binding result in assay [3] is “no binding”.

B6: KRAS_G12CDV_A3_c19 (scFv)
scFv: DIQMTQSPSSLSASVGDRVTITCRASQDVNTAVAWYQQKPGKAPKLLIYSASFLYSGVPSRFSGSRSGTDFTLTISSLQPEDFATYYCQQTYYSPWTFGQGTKVEIKRTGGGSGGGGSGGGASEVQLVESGGGLVQPGGSLRLSCAASGFNIRSYAMHWVRQAPGKGLEWVAQVGPGKGYTYYADSVKGRFTISADTSKNTAYLQMNSLRAEDTAVYYCSRNFQSTSHAFDYWGQGTLVTVSS
In the case of B6, the binding result in assay [2] is recorded as “no binding”.

B7: KRAS_G12D_A3_D15 (scFv)
scFv: DIQMTQSPSSLSASVGDRVTITCRASQDVNTAVAWYQQKPGKAPKLLIYSASFLYSGVPSRFSGSRSGTDFTLTISSLQPEDFATYYCQQSSASPLTFGQGTKVEIKRTGGGSGGGGSGGGASEVQLVESGGGLVQPGGSLRLSCAASGFNVSSVGMHWVRQAPGKGLEWVAYIYGTSDYTYYADSVKGRFTISADTSKNTAYLQMNSLRAEDTAVYYCSRSSRYSMDYWGQGTLVTVSS
Regarding B7, in assay [1], the binding result is “no binding”.

B8: KRAS_G12CV_A3_c15 (scFv)
scFv: DIQMTQSPSSLSASVGDRVTITCRASQDVNTAVAWYQQKPGKAPKLLIYSASFLYSGVPSRFSGSRSGTDFTLTISSLQPEDFATYYCQQSYGSGSPWTFGQGTKVEIKRTGGGSGGGGSGGGASEVQLVESGGGLVQPGGSLRLSCAASGFNIVGGGIHWVRQAPGKGLEWVAKIYPQGDYTYYADSVKGRFTISADTSKNTAYLQMNSLRAEDTAVYYCSRDSSYLAFDYWGQGTLVTVSS
As to B8, the binding result in assay [2] is reported as “no binding”.
